B1: Tripartite motif-containing protein 5 (Homo sapiens), Q9C035-4 (parent)
chain: MASGILVNVKEEVTCPICLELLTQPLSLDCGHSFCQACLTANHKKSMLDKGESSCPVCRISYQPENIRPNRHVANIVEKLREVKLSPEGQKVDHCARHGEKLLLFCQEDGKVICWLCERSQEHRGHHTFLTEEVAREYQVKLQAALEMLRQKQQEAEELEADIREEKASWKTQIQYDKTNVLADFEQLRDILDWEESNELQNLEKEEEDILKSLTNSETEMVQQTQSLRELISDLEHRLQGSVMELLQGVDGVIKRTENVTLKKPETFPKNQRRVFRAPDLKGMLEVFRELTDVRRYWGWSAMARSRFTATSTSQIQAILLPQPPK
partner: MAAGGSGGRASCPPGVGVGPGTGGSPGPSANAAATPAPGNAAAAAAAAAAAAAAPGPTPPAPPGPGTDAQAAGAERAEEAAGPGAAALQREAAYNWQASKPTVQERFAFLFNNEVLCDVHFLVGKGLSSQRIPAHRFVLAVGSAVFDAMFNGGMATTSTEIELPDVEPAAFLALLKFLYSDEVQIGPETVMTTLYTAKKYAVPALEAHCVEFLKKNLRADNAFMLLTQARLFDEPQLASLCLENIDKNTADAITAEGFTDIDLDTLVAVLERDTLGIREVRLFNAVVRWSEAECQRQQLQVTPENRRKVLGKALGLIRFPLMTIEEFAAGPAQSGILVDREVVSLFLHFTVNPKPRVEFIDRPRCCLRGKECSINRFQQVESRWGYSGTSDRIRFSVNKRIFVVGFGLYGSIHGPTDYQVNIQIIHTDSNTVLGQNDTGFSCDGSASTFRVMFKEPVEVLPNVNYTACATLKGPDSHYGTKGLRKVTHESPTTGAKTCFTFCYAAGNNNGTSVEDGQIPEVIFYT

In the assay the parent is B1. The settings on record: with btbd2_human BTBD2, Q9BX70.
Regarding C15A;C18A, the “effect of a mutation on the interaction” value is “decreasing interaction”.
